This is an account of results in patent publication US20170145379.

Data set [1] deals with T1, 18-mer peptide PQLPYPQPQLPYPQPQPF
T1 sequence: PQLPYPQPQLPYPQPQPF

Data set [2] deals with T2, 33-mer peptide LQLQPFPQPQLPYPQPQLPYPQPQLPYPQPQPF from α2-gliadin.
T2 sequence: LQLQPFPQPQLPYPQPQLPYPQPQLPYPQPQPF

With “elongation factor G from Streptococcus thermophilus (strain P02638 F9 = DN_001343, CNCM I-2776), purified from culture supernatant”, in data set [1], the “Km (protease activity against 18-mer peptide)” value came out at 0.794 mg 18-mer peptide/m1 and the Vmax (protease activity against 18-mer peptide) (mg 18-mer peptide/ml) came out at 1.5. Moreover, in data set [2], the “in vitro degradation of the peptide (protease activity)” value is “The protease able to degrade in vitro the 33-mer as well as the 18-mer peptide”.

With “elongation factor Tu from Lactobacillus casei (strain P02503 A1 = DN_114001, CNCM I-1518), purified from culture supernatant”, in data set [1], the “Km (protease activity against 18-mer peptide)” value is recorded as 0.643 mg 18-mer peptide/ml and the Vmax (protease activity against 18-mer peptide) (mg 18-mer peptide/ml) is 1.27. For the same substance, the “in vitro degradation of the peptide (protease activity)” value in data set [2] was “The protease able to degrade in vitro the 33-mer as well as the 18-mer peptide”.
